Experimental data taken from paper PMC12724371 (2025).

Target: T1, OC43 spike S2 subunit extracellular domain with T4 foldon (HCoV-OC43)
T1 chain: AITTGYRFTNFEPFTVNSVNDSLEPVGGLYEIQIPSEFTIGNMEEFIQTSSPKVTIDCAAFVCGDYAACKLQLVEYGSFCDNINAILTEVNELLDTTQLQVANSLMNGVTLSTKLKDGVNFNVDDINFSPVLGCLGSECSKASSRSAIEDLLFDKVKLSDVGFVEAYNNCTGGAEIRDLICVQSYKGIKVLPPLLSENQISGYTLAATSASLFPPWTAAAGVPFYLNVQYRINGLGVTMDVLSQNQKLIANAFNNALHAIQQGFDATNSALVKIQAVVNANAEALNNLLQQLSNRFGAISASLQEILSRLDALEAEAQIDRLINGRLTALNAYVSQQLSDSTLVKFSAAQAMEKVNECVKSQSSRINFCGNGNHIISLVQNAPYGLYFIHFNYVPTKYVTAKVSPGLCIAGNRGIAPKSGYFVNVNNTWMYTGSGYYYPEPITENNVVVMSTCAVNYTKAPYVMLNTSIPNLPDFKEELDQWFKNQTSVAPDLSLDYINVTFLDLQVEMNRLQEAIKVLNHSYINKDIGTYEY
Experiment: BLI

B1: 1871 Fab (Fab, V domains shown)
VH: EVQLVESGGGLVKPGGSLRLSCVASGFSFSIYSMNWVRQAPGKGLEWVSYISSSSSYKYYADSVKGRFSVSRDNAKNSLYLQLNGLRAEDTAVYYCARDGYCPKGVCTYYGMDVWGQGTTVTVSA
VL: EIVMTQSPATLSVSPGERVTLSCRASQSVRSRLAWFQQKPGQAPRLLIYDASIRATGIPARFSGSGSGTEFTLIISSLQSEDFAVYYCQQYDNWPPAYTFGQGTKLEIK
  Kd: < 1 pM
